Legend:
Assay in all cases: BioID2 proximity labelling, HEK293 cells
[1] = target: T1, p300 (human, UniProt Q09472 2-2414)
T1 construct: Endogenous prey identified by mass spectrometry; also called EP300; CBP/p300 (with CBP)

[2] = target: T2, CBP (human, UniProt Q92793 2-2442)
T2 construct: Endogenous prey identified by mass spectrometry; also called CBP/p300 (with p300)

[3] = target: T3, SUZ12 tagged with BirA-FLAG (human; Aquifex aeolicus, UniProt Q15022 1-739)
T3 construct: not shown: BioID2 biotin ligase (BirA from Aquifex aeolicus) tag

[4] = target: T4, SRF (Serum Response Factor) tagged with BirA-FLAG (human; Aquifex aeolicus, UniProt P11831 1-508)
T4 construct: not shown: BioID2 biotin ligase (BirA from Aquifex aeolicus) tag
T4 sequence (looked up): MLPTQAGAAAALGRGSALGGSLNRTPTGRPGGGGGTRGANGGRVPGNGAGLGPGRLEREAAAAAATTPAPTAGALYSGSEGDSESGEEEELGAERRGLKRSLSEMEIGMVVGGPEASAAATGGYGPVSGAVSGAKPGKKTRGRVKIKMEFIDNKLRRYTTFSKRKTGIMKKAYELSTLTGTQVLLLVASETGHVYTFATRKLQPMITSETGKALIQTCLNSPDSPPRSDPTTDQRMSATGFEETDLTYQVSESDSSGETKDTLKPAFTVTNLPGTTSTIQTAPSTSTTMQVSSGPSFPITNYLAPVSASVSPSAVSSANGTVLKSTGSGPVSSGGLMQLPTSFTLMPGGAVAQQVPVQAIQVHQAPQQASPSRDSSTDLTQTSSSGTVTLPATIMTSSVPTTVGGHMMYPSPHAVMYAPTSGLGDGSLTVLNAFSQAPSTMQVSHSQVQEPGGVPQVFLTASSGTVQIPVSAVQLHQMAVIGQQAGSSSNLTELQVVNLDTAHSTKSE

T2 sequence (Q92793 2-2442 limits assumed): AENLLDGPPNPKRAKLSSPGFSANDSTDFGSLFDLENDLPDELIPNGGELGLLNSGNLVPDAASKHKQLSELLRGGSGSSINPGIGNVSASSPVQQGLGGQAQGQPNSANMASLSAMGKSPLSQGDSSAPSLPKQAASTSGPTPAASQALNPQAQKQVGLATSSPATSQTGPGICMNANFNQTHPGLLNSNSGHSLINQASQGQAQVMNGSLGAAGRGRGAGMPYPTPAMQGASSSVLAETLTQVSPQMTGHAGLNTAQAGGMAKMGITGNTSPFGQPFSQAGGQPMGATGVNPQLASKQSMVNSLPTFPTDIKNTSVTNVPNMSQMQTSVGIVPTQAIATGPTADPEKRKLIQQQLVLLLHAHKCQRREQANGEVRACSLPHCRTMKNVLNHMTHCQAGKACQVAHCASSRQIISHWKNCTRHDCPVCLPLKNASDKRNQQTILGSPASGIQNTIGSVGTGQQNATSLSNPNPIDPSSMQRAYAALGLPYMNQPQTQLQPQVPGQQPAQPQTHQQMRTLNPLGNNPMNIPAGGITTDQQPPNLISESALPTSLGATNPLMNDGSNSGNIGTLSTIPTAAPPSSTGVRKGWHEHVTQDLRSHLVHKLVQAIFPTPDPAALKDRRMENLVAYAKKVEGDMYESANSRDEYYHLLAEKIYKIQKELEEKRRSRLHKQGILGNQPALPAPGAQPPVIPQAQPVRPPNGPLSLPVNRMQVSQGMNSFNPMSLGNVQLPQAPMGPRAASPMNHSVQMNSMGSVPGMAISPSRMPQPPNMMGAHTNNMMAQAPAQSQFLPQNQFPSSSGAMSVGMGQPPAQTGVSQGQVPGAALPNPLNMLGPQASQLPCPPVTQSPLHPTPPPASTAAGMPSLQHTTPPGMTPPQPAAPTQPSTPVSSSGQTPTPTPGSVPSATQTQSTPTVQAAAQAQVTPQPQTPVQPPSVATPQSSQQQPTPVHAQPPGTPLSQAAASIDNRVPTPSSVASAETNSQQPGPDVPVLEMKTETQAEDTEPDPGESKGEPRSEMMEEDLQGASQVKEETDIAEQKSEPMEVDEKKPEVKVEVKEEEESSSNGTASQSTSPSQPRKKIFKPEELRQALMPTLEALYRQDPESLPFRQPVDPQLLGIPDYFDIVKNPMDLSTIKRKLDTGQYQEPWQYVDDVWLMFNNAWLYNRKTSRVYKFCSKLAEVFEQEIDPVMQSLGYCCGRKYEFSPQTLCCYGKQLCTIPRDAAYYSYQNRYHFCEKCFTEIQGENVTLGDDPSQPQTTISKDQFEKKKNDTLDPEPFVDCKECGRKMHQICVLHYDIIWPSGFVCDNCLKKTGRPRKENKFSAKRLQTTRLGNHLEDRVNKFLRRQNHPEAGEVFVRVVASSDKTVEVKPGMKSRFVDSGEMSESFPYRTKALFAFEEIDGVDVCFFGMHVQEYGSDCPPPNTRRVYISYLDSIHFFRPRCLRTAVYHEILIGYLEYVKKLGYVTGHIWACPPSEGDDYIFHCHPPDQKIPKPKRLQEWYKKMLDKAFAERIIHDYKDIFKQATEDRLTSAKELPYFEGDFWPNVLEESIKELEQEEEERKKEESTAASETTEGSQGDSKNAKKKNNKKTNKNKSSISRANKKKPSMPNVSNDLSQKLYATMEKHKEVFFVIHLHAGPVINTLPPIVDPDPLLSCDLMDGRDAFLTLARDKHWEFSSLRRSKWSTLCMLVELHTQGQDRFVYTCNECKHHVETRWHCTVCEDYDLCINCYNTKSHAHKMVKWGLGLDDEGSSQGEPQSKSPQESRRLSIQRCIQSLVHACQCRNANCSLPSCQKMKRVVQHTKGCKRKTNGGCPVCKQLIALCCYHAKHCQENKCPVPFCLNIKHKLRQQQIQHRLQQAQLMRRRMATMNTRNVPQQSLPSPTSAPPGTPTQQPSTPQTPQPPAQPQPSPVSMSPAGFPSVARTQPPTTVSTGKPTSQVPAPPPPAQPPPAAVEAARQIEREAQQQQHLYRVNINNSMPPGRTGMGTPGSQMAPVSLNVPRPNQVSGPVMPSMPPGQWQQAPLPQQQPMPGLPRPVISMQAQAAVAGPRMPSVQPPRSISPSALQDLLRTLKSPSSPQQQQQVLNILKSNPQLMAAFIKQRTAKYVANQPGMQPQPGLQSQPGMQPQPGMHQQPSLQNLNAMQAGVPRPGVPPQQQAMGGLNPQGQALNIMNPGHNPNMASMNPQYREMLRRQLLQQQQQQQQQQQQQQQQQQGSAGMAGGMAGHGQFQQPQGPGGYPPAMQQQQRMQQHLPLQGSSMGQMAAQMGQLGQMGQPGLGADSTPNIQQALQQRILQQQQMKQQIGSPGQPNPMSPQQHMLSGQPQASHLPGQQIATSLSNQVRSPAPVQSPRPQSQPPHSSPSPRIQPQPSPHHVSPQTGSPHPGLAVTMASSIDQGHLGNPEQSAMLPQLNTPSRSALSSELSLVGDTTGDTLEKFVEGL
T1 sequence (Q09472 2-2414 limits assumed): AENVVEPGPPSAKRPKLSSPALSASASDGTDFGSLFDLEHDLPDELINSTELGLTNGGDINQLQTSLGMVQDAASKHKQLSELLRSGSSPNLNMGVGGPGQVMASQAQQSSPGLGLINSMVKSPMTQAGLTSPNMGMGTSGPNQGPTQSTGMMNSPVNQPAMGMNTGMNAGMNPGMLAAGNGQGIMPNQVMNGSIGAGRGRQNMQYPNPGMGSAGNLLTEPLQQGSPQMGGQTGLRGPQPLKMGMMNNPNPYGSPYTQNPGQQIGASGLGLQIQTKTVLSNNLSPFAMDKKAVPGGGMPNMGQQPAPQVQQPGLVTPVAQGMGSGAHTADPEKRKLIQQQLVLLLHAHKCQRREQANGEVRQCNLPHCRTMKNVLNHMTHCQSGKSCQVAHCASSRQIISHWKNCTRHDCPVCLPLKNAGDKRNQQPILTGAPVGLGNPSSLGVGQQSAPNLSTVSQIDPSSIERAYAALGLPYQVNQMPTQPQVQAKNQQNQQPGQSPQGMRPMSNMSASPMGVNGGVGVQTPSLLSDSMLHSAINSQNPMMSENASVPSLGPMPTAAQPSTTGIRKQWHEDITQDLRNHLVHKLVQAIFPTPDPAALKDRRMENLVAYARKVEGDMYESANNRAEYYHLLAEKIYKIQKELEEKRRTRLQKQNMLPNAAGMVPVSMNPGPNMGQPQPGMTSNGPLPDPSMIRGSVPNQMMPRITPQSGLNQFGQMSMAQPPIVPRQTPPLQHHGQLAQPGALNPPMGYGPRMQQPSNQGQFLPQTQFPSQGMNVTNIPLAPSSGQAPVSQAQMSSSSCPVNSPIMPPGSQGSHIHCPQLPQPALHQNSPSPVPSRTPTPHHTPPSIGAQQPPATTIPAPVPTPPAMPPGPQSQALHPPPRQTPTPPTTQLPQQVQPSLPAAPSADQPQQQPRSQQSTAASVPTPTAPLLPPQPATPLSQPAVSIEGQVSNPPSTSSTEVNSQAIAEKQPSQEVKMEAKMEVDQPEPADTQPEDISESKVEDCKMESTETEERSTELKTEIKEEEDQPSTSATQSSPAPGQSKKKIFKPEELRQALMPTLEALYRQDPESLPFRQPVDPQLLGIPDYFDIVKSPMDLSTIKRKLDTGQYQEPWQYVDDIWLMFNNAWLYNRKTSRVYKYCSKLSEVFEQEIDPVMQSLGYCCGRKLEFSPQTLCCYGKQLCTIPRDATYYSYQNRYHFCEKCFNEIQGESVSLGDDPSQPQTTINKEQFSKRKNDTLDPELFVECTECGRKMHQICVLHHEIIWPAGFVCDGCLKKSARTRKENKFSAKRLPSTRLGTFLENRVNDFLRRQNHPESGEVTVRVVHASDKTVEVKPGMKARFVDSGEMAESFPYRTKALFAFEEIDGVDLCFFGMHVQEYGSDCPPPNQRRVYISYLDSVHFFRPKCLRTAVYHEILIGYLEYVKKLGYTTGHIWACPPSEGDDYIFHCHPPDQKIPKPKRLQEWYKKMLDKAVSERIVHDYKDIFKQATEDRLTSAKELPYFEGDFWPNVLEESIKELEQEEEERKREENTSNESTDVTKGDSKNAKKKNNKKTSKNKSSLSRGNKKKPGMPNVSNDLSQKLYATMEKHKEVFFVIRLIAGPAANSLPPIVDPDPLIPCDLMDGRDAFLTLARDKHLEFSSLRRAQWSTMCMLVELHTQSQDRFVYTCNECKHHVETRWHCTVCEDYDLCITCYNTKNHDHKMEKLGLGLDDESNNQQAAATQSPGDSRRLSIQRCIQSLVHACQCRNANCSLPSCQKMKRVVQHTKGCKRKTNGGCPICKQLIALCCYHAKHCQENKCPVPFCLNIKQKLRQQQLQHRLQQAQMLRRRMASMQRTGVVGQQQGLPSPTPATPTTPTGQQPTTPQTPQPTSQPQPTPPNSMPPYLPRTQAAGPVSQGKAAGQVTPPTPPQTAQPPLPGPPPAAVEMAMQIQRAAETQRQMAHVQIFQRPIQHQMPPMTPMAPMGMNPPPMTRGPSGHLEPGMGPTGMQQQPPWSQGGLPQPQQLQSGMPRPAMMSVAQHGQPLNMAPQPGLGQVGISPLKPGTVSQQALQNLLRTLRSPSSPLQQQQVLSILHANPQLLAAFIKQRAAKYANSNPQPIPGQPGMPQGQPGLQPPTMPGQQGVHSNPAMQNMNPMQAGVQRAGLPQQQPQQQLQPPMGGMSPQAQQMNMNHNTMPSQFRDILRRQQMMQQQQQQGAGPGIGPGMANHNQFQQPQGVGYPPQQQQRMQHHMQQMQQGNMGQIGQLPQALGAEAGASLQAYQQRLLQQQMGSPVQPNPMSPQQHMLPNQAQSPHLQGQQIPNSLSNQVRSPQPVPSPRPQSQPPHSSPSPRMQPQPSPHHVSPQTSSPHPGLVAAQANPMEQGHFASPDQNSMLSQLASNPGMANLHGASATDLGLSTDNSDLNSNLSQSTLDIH

B1: SOX7 fused to BioID2 (BirA from Aquifex aeolicus) and FLAG (other, human;Aquifex aeolicus, UniProt Q9BT81 1-388, looked up)
chain: MASLLGAYPWPEGLECPALDAELSDGQSPPAVPRPPGDKGSESRIRRPMNAFMVWAKDERKRLAVQNPDLHNAELSKMLGKSWKALTLSQKRPYVDEAERLRLQHMQDYPNYKYRPRRKKQAKRLCKRVDPGFLLSSLSRDQNALPEKRSGSRGALGEKEDRGEYSPGTALPSLRGCYHEGPAGGGGGGTPSSVDTYPYGLPTPPEMSPLDVLEPEQTFFSSPCQEEHGHPRRIPHLPGHPYSPEYAPSPLHCSHPLGSLALGQSPGVSMMSPVPGCPPSPAYYSPATYHPLHSNLQAHLGQLSPPPEHPGFDALDQLSQVELLGDMDRNEFDQYLNTPGHPDSATGAMALSGHVPVSQVTPTGPTETSLISVLADATATYYNSYSVS
notes: Tetracycline-inducible bait in HEK293 Flp-In T-REx cells; not shown: BioID2 biotin ligase (BirA from Aquifex aeolicus), C-terminal tag
- binding result [1]: binds
- binding result [2]: binds

B2: MTF2/PCL2 (other, human, UniProt Q9Y483 1-593, looked up)
chain: MRDSTGAGNSLVHKRSPLRRNQKTPTSLTKLSLQDGHKAKKPACKFEEGQDVLARWSDGLFYLGTIKKINILKQSCFIIFEDSSKSWVLWKDIQTGATGSGEMVCTICQEEYSEAPNEMVICDKCGQGYHQLCHTPHIDSSVIDSDEKWLCRQCVFATTTKRGGALKKGPNAKALQVMKQTLPYSVADLEWDAGHKTNVQQCYCYCGGPGDWYLKMLQCCKCKQWFHEACVQCLQKPMLFGDRFYTFICSVCSSGPEYLKRLPLQWVDIAHLCLYNLSVIHKKKYFDSELELMTYINENWDRLHPGELADTPKSERYEHVLEALNDYKTMFMSGKEIKKKKHLFGLRIRVPPVPPNVAFKAEKEPEGTSHEFKIKGRKASKPISDSREVSNGIEKKGKKKSVGRPPGPYTRKMIQKTAEPLLDKESISENPTLDLPCSIGRTEGTAHSSNTSDVDFTGASSAKETTSSSISRHYGLSDSRKRTRTGRSWPAAIPHLRRRRGRLPRRALQTQNSEIVKDDEGKEDYQFDELNTEILNNLADQELQLNHLKNSITSYFGAAGRIACGEKYRVLARRVTLDGKVQYLVEWEGATAS
- binding result [3]: binds

B3: ELK1 (other, human, UniProt P19419 1-428, looked up)
chain: MDPSVTLWQFLLQLLREQGNGHIISWTSRDGGEFKLVDAEEVARLWGLRKNKTNMNYDKLSRALRYYYDKNIIRKVSGQKFVYKFVSYPEVAGCSTEDCPPQPEVSVTSTMPNVAPAAIHAAPGDTVSGKPGTPKGAGMAGPGGLARSSRNEYMRSGLYSTFTIQSLQPQPPPHPRPAVVLPSAAPAGAAAPPSGSRSTSPSPLEACLEAEEAGLPLQVILTPPEAPNLKSEELNVEPGLGRALPPEVKVEGPKEELEVAGERGFVPETTKAEPEVPPQEGVPARLPAVVMDTAGQAGGHAASSPEISQPQKGRKPRDLELPLSPSLLGGPGPERTPGSGSGSGLQAPGPALTPSLLPTHTLTPVLLTPSSLPPSIHFWSTLSPIAPRSPAKLSFQFPSSGSAQVHIPSISVDGLSTPVVLSPGPQKP
- binding result [4]: binds
